Experimental data reported in US20240132624A1 (Ablynx, published 2024).
Changes are numbered by the printed parent chain.

B1: T0263018B11 D58Y (VHH, name in Kabat numbering)
VHH: EVQLVESGGGVVQPGGSLRLSCAASGFTFSSYAMYWVRQAPGKGLEWVSAISSGGGSTYYADSVKGRFTISRDNSKNTLYLQMNSLRPEDTALYYCAADTLYTSLTWYSYWGQGTLVTVSS
notes: FLAG3-His6 tagged
B2: T0263018B11 F29D (VHH, name in Kabat numbering)
VHH: B1 VHH with F29D, Y59D
notes: FLAG3-His6 tagged
B3: T0263018B11 S30E (VHH, name in Kabat numbering)
VHH: B1 VHH with S30E, Y59D
notes: FLAG3-His6 tagged
B4: T0263018B11 S30K (VHH, name in Kabat numbering)
VHH: B1 VHH with S30K, Y59D
notes: FLAG3-His6 tagged
B5: T0263018B11 G55D (VHH, name in Kabat numbering)
VHH: B1 VHH with G56D, Y59D
notes: FLAG3-His6 tagged
B6: T0263018B11 G26N (VHH, name in Kabat numbering)
VHH: B1 VHH with G26N, Y59D
notes: FLAG3-His6 tagged
B7: T0263018B11 G26H (VHH, name in Kabat numbering)
VHH: B1 VHH with G26H, Y59D
notes: FLAG3-His6 tagged
B8: T0263018B11 S31P (VHH, name in Kabat numbering)
VHH: B1 VHH with S31P, Y59D
notes: FLAG3-His6 tagged
B9: T0263018B11 S30T (VHH, name in Kabat numbering)
VHH: B1 VHH with S30T, Y59D
notes: FLAG3-His6 tagged
B10: T0263018B11 F29G (VHH, name in Kabat numbering)
VHH: B1 VHH with F29G, Y59D
notes: FLAG3-His6 tagged
B11: T0263018B11 F29H (VHH, name in Kabat numbering)
VHH: B1 VHH with F29H, Y59D
notes: FLAG3-His6 tagged
B12: T0263018B11 G26S (VHH, name in Kabat numbering)
VHH: B1 VHH with G26S, Y59D
notes: FLAG3-His6 tagged
B13: T0263018B11 S31N (VHH, name in Kabat numbering)
VHH: B1 VHH with S31N, Y59D
notes: FLAG3-His6 tagged
B14: T0263018B11 G54P (VHH, name in Kabat numbering)
VHH: B1 VHH with G55P, Y59D
notes: FLAG3-His6 tagged
B15: T0263018B11 S30D (VHH, name in Kabat numbering)
VHH: B1 VHH with S30D, Y59D
notes: FLAG3-His6 tagged
B16: T0263018B11 G26M (VHH, name in Kabat numbering)
VHH: B1 VHH with G26M, Y59D
notes: FLAG3-His6 tagged
B17: T0263018B11 S30Q (VHH, name in Kabat numbering)
VHH: B1 VHH with S30Q, Y59D
notes: FLAG3-His6 tagged
B18: T0263018B11 S30G (VHH, name in Kabat numbering)
VHH: B1 VHH with S30G, Y59D
notes: FLAG3-His6 tagged
B19: T0263018B11 G54E (VHH, name in Kabat numbering)
VHH: B1 VHH with G55E, Y59D
notes: FLAG3-His6 tagged
B20: T0263018B11 F29V (VHH, name in Kabat numbering)
VHH: B1 VHH with F29V, Y59D
notes: FLAG3-His6 tagged
B21: T0263018B11 S31K (VHH, name in Kabat numbering)
VHH: B1 VHH with S31K, Y59D
notes: FLAG3-His6 tagged
B22: T0263018B11 G26E (VHH, name in Kabat numbering)
VHH: B1 VHH with G26E, Y59D
notes: FLAG3-His6 tagged
B23: T0263018B11 F29S (VHH, name in Kabat numbering)
VHH: B1 VHH with F29S, Y59D
notes: FLAG3-His6 tagged
B24: T0263018B11 F27L (VHH, name in Kabat numbering)
VHH: B1 VHH with F27L, Y59D
notes: FLAG3-His6 tagged
B25: T0263018B11 L100aM (VHH, name in Kabat numbering)
VHH: B1 VHH with Y59D, L105M
notes: FLAG3-His6 tagged
B26: T0263018B11 F27Y (VHH, name in Kabat numbering)
VHH: B1 VHH with F27Y, Y59D
notes: FLAG3-His6 tagged
B27: T0263018B11 G26D (VHH, name in Kabat numbering)
VHH: B1 VHH with G26D, Y59D
notes: FLAG3-His6 tagged
B28: T0263018B11 S30N (VHH, name in Kabat numbering)
VHH: B1 VHH with S30N, Y59D
notes: FLAG3-His6 tagged
B29: T0263018B11 G26Y (VHH, name in Kabat numbering)
VHH: B1 VHH with G26Y, Y59D
notes: FLAG3-His6 tagged
B30: T0263018B11 G26Q (VHH, name in Kabat numbering)
VHH: B1 VHH with G26Q, Y59D
notes: FLAG3-His6 tagged
B31: T0263018B11 G54L (VHH, name in Kabat numbering)
VHH: B1 VHH with G55L, Y59D
notes: FLAG3-His6 tagged

biological target: T1, human FcRn/b2M (human, UniProt P61769 21-119, biotinylated); test: SPR pH 6.0;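 further: surface plasmon resonance kinetics at 25 °C, diluted periplasmic extracts injected over immobilized ligand surfaces, 120 s association then 600–3600 s dissociation, running buffer containing 150 mM NaCl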
T1 construct: bought recombinant biotinylated protein (ACRO FCM-H82W4 or Immunitrack ITF01); also called hFcRn; hFcRn/hb2M
Experimental: (§1) All kinetic measurements have been performed on ProteOn XPR36 (BioRad Laboratories, Inc.), MASS-2 (Sierra sensors, Gmbh) or SPR-32 (Bruker Corporation). […] The phytip purified periplasmic extracts were diluted 1:10 in running buffer (CPA+150 mM NaCl+0.005% Tw20 at pH 5.5, pH 6.0 or pH 7.4) and injected over the ligand surfaces (association: 120 s at 45 μL/min; dissociation: 600s-3600 s at 45 μL/min). Experiments were carried out at 25° C.

Row | koff | Binder
1 | 0.01 s⁻¹ | B1
2 | 0.0036 s⁻¹ | B2
3 | 0.0019 s⁻¹ | B3
4 | 0.0078 s⁻¹ | B4
5 | 0.0017 s⁻¹ | B5
6 | 0.00081 s⁻¹ | B6
7 | 0.00055 s⁻¹ | B7
8 | 0.00088 s⁻¹ | B8
9 | 0.0016 s⁻¹ | B9
10 | 0.0033 s⁻¹ | B10
11 | 0.0039 s⁻¹ | B11
12 | 0.00091 s⁻¹ | B12
13 | 0.0034 s⁻¹ | B13
14 | 0.0016 s⁻¹ | B14
15 | 0.0032 s⁻¹ | B15
16 | 0.00063 s⁻¹ | B16

Row | koff | Binder
17 | 0.00085 s⁻¹ | B17
18 | 0.00066 s⁻¹ | B18
19 | 0.0016 s⁻¹ | B19
20 | 0.0021 s⁻¹ | B20
21 | 0.0013 s⁻¹ | B21
22 | 0.00095 s⁻¹ | B22
23 | 0.0016 s⁻¹ | B23
24 | 0.0013 s⁻¹ | B24
25 | 0.015 s⁻¹ | B25
26 | 0.0012 s⁻¹ | B26
27 | 0.0012 s⁻¹ | B27
28 | 0.0019 s⁻¹ | B28
29 | 0.00065 s⁻¹ | B29
30 | 0.00065 s⁻¹ | B30
31 | 0.0016 s⁻¹ | B31

biological target: T2, cyno FcRn/b2M (cyno, UniProt Q8SPV9 24-297; Q8SPW0 21-119, biotinylated); test: SPR pH 6.0;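 further: surface plasmon resonance kinetics at 25 °C, diluted periplasmic extracts injected over immobilized ligand surfaces, 120 s association then 600–3600 s dissociation, running buffer containing 150 mM NaCl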
T2 construct: bought recombinant biotinylated protein (Immunitrack ITF05 or ACRO FCM-C82W5); also called cFcRn; cFcRn/cb2M
T2 sequence (Q8SPV9 24-297 limits assumed, chain 1 of 2): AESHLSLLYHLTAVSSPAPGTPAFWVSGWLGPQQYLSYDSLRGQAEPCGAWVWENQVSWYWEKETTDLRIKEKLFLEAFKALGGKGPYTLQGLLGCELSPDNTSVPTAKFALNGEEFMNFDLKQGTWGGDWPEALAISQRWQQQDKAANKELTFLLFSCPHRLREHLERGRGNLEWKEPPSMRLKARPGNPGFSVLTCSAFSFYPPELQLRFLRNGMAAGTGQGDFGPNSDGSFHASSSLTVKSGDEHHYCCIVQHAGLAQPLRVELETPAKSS
T2 sequence (Q8SPW0 21-119 limits assumed, chain 2 of 2): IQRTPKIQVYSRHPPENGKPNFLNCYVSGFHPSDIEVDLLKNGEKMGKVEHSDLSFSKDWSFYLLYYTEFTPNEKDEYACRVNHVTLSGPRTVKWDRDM
Experimental: as §1

Row | koff | Binder
32 | 0.002 s⁻¹ | B1
33 | 0.0028 s⁻¹ | B2
34 | 0.0016 s⁻¹ | B3
35 | 0.003 s⁻¹ | B4
36 | 0.0013 s⁻¹ | B5
37 | 0.00037 s⁻¹ | B6
38 | 0.00016 s⁻¹ | B7
39 | 0.00073 s⁻¹ | B8
40 | 0.0014 s⁻¹ | B9
41 | 0.0025 s⁻¹ | B10
42 | 0.0031 s⁻¹ | B11
43 | 0.00079 s⁻¹ | B12
44 | 0.0018 s⁻¹ | B13
45 | 0.0017 s⁻¹ | B14
46 | 0.0026 s⁻¹ | B15
47 | 7.1e-05 s⁻¹ | B16

Row | koff | Binder
48 | 0.00055 s⁻¹ | B17
49 | 0.00054 s⁻¹ | B18
50 | 0.0016 s⁻¹ | B19
51 | 0.0016 s⁻¹ | B20
52 | 0.0011 s⁻¹ | B21
53 | 0.00081 s⁻¹ | B22
54 | 0.0013 s⁻¹ | B23
55 | 0.001 s⁻¹ | B24
56 | 0.013 s⁻¹ | B25
57 | 0.00042 s⁻¹ | B26
58 | 0.00095 s⁻¹ | B27
59 | 0.0013 s⁻¹ | B28
60 | 0.00055 s⁻¹ | B29
61 | 1.3e-05 s⁻¹ | B30
62 | 0.0017 s⁻¹ | B31

biological target: T1, human FcRn/b2M; test: SPR pH 7.4;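 further: surface plasmon resonance kinetics, periplasmic extracts diluted 1:10 flowed over immobilized target at 25 °C, 120 s association then 600–3600 s dissociation, buffer with 150 mM NaCl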
Experimental: as §1

Row | koff | Binder
63 | 0.089 s⁻¹ | B1
64 | 0.14 s⁻¹ | B2
65 | 0.071 s⁻¹ | B3
66 | 0.069 s⁻¹ | B4
67 | 0.07 s⁻¹ | B5
68 | 0.042 s⁻¹ | B6
69 | 0.034 s⁻¹ | B7
70 | 0.043 s⁻¹ | B8
71 | 0.059 s⁻¹ | B9
72 | 0.15 s⁻¹ | B10
73 | 0.14 s⁻¹ | B11
74 | 0.047 s⁻¹ | B12
75 | 0.17 s⁻¹ | B13
76 | 0.033 s⁻¹ | B14
77 | 0.13 s⁻¹ | B15
78 | 0.033 s⁻¹ | B16

Row | koff | Binder
79 | 0.035 s⁻¹ | B17
80 | 0.025 s⁻¹ | B18
81 | 0.046 s⁻¹ | B19
82 | 0.089 s⁻¹ | B20
83 | 0.048 s⁻¹ | B21
84 | 0.042 s⁻¹ | B22
85 | 0.066 s⁻¹ | B23
86 | 0.05 s⁻¹ | B24
87 | 0.62 s⁻¹ | B25
88 | 0.054 s⁻¹ | B26
89 | 0.063 s⁻¹ | B27
90 | 0.082 s⁻¹ | B28
91 | 0.027 s⁻¹ | B29
92 | 0.034 s⁻¹ | B30
93 | 0.041 s⁻¹ | B31

biological target: T2, cyno FcRn/b2M; test: SPR pH 7.4;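 further: surface plasmon resonance kinetics, periplasmic extracts diluted 1:10 flowed over immobilized target at 25 °C, 120 s association then 600–3600 s dissociation, buffer with 150 mM NaCl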
Experimental: as §1

Row | koff | Binder
94 | 0.025 s⁻¹ | B1
95 | 0.15 s⁻¹ | B2
96 | 0.073 s⁻¹ | B3
97 | 0.055 s⁻¹ | B4
98 | 0.07 s⁻¹ | B5
99 | 0.032 s⁻¹ | B6
100 | 0.026 s⁻¹ | B7
101 | 0.043 s⁻¹ | B8
102 | 0.062 s⁻¹ | B9
103 | 0.14 s⁻¹ | B10
104 | 0.13 s⁻¹ | B11
105 | 0.053 s⁻¹ | B12
106 | 0.12 s⁻¹ | B13
107 | 0.041 s⁻¹ | B14
108 | 0.17 s⁻¹ | B15
109 | 0.025 s⁻¹ | B16

Row | koff | Binder
110 | 0.026 s⁻¹ | B17
111 | 0.019 s⁻¹ | B18
112 | 0.062 s⁻¹ | B19
113 | 0.086 s⁻¹ | B20
114 | 0.044 s⁻¹ | B21
115 | 0.05 s⁻¹ | B22
116 | 0.059 s⁻¹ | B23
117 | 0.048 s⁻¹ | B24
118 | 0.51 s⁻¹ | B25
119 | 0.039 s⁻¹ | B26
120 | 0.058 s⁻¹ | B27
121 | 0.061 s⁻¹ | B28
122 | 0.028 s⁻¹ | B29
123 | 0.026 s⁻¹ | B30
124 | 0.06 s⁻¹ | B31

biological target: T1, human FcRn/b2M; test: SPR off-rate; pH 7.4 vs pH 6.0;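 further: surface plasmon resonance with diluted periplasmic extracts flowed over ligand surfaces, 120 s association and 600–3600 s dissociation at 25 °C, running buffer containing 150 mM NaCl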
Experimental: as §1

Row | kd ratio pH 7.4/6.0 | Binder
125 | 9 | B1
126 | 39 | B2
127 | 37 | B3
128 | 9 | B4
129 | 41 | B5
130 | 53 | B6
131 | 62 | B7
132 | 49 | B8
133 | 37 | B9
134 | 45 | B10
135 | 36 | B11
136 | 52 | B12
137 | 50 | B13
138 | 21 | B14
139 | 41 | B15
140 | 52 | B16

Row | kd ratio pH 7.4/6.0 | Binder
141 | 42 | B17
142 | 38 | B18
143 | 29 | B19
144 | 42 | B20
145 | 37 | B21
146 | 44 | B22
147 | 41 | B23
148 | 38 | B24
149 | 42 | B25
150 | 45 | B26
151 | 53 | B27
152 | 42 | B28
153 | 42 | B29
154 | 53 | B30
155 | 26 | B31

biological target: T2, cyno FcRn/b2M; test: SPR off-rate; pH 7.4 vs pH 6.0;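 further: surface plasmon resonance with diluted periplasmic extracts flowed over ligand surfaces, 120 s association and 600–3600 s dissociation at 25 °C, running buffer containing 150 mM NaCl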
Experimental: as §1

Row | kd ratio pH 7.4/6.0 | Binder
156 | 12 | B1
157 | 54 | B2
158 | 46 | B3
159 | 18 | B4
160 | 54 | B5
161 | 86 | B6
162 | 159 | B7
163 | 59 | B8
164 | 44 | B9
165 | 56 | B10
166 | 42 | B11
167 | 67 | B12
168 | 69 | B13
169 | 24 | B14
170 | 65 | B15
171 | 349 | B16

Row | kd ratio pH 7.4/6.0 | Binder
172 | 47 | B17
173 | 35 | B18
174 | 39 | B19
175 | 54 | B20
176 | 40 | B21
177 | 62 | B22
178 | 45 | B23
179 | 48 | B24
180 | 41 | B25
181 | 93 | B26
182 | 61 | B27
183 | 46 | B28
184 | 51 | B29
185 | 2010 | B30
186 | 35 | B31
